Assays:
Conditions in all cases: both partners purified
[1] = biological target: T1, N(1/180–265/422), bacterially expressed (Chandipura virus, UniProt P11211 1-422, N(1/180–265/422)); assay: pull-down; His-tag co-elution after 1% DOC treatment of the N variants and dialysis against the binding buffer in presence of His-P (N variants monomeric); Ni-NTA agarose, eluted with 250 mM imidazole
T1 construct: also called middle deletant; source: E. coli BL21(DE3) or BL21(DE3)pLysS, purified (anion exchange, MonoQ 5/50 GL)
T1 sequence: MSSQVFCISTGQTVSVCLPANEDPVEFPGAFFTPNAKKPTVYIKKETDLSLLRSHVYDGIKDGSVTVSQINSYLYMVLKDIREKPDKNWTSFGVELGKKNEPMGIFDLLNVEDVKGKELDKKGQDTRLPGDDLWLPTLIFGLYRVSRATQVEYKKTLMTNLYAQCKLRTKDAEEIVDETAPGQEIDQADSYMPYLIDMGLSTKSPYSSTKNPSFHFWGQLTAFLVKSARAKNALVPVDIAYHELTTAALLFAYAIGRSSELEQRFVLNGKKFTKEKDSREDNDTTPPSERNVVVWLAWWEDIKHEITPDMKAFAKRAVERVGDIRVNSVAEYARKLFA

[2] = biological target: T2, N(1–320), bacterially expressed (Chandipura virus, UniProt P11211 1-320); assay: as above
T2 construct: Chandipura virus nucleocapsid protein N, residues 1-320; also called N(1–320)^0 (monomer after DOC treatment); source: E. coli BL21(DE3) or BL21(DE3)pLysS, purified (anion exchange, MonoQ 5/50 GL)
T2 sequence: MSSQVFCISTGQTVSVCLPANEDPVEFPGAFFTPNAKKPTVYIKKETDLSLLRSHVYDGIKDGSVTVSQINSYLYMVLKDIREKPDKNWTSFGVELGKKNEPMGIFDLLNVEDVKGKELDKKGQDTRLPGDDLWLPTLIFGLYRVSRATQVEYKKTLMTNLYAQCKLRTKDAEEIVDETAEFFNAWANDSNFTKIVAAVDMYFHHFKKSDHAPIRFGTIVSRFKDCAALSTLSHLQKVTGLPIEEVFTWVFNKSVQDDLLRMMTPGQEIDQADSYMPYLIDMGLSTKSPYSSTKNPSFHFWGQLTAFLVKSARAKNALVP

[3] = biological target: T3, Chandipura virus nucleocapsid protein (N), wild-type, untagged, bacterially expressed (Chandipura virus, UniProt P11211 1-422); assay: pull-down; His-tag co-elution: N proteins not treated with DOC incubated with 6×His-P in 50 mM Tris-Cl pH 8, 100 mM NaCl, 0.1% Triton X-100, 10 mM imidazole, 30 min at 4°C; bound to Ni-NTA agarose, eluted with 250 mM imidazole
T3 construct: Chandipura virus nucleocapsid protein N, full-length untagged (pET3a-NC); Oligomeric (nucleocapsid-like rings) as purified; monomeric after 1% DOC; also called CHPV N; wild-type N
T3 sequence: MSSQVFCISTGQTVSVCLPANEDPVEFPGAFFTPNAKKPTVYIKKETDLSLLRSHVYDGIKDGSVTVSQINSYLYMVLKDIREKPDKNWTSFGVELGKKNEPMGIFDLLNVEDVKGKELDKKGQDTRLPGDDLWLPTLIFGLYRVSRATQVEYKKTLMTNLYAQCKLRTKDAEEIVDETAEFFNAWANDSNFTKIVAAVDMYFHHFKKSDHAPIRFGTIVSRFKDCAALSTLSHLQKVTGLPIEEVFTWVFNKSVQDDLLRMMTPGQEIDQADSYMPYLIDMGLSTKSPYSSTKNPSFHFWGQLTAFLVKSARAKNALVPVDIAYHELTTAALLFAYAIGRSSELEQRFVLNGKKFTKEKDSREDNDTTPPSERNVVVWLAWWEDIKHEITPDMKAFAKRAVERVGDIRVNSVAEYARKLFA

[4] = biological target: T4, N(1–390), bacterially expressed (Chandipura virus, UniProt P11211 1-390); assay: as above
T4 construct: Chandipura virus nucleocapsid protein N, residues 1-390; source: E. coli BL21(DE3) or BL21(DE3)pLysS, purified (anion exchange, MonoQ 5/50 GL)
T4 sequence: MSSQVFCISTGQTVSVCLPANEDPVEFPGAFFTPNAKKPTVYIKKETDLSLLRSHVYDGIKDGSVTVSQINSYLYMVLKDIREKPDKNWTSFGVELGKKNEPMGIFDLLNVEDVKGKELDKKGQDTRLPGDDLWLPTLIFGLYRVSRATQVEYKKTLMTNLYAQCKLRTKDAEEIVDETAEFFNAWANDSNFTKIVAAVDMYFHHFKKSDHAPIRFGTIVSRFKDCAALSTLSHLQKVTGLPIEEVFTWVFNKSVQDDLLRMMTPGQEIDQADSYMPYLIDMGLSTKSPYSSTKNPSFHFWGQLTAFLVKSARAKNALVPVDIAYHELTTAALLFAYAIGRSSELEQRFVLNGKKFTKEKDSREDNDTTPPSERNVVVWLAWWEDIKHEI

[5] = biological target: T5, N(22–422), bacterially expressed (Chandipura virus, UniProt P11211 22-422); assay: as above
T5 construct: source: E. coli BL21(DE3) or BL21(DE3)pLysS, purified (anion exchange, MonoQ 5/50 GL)
T5 sequence: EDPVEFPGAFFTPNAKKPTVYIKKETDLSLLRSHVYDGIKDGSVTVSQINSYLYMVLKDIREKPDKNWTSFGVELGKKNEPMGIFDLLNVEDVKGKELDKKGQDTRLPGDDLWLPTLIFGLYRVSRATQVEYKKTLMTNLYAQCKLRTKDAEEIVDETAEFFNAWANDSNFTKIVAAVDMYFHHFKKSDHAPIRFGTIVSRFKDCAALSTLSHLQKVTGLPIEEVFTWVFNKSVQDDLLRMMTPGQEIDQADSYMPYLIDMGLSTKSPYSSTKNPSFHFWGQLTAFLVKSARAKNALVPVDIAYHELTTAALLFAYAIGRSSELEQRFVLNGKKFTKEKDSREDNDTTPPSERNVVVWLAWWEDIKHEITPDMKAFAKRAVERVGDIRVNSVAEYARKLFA

[6] = biological target: T6, N(48–422), bacterially expressed (Chandipura virus, UniProt P11211 48-422); assay: as above
T6 construct: source: E. coli BL21(DE3) or BL21(DE3)pLysS, purified (anion exchange, MonoQ 5/50 GL)
T6 sequence: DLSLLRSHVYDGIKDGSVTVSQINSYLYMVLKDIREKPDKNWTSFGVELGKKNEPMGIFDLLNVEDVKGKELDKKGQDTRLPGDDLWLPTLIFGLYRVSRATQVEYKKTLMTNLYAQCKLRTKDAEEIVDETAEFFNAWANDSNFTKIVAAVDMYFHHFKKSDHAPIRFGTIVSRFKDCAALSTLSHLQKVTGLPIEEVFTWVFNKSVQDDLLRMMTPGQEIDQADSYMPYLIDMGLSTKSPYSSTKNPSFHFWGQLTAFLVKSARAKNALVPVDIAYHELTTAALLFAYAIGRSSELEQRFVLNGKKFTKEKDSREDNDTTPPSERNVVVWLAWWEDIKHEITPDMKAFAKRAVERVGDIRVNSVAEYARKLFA

Measured: binding result

B1: N-terminal six histidine tagged P protein of Chandipura virus (His-P) (natural protein)
chain: MEDSQLYQALKNYPKLQDTLDSIENLEDDTKSEPSECGSPTERGIPSYYLAEELDECEEEDSEEDDDNLPTEIPDPPTVDMLEAIMEDEIDDTAYQVHFEAKQTWKPVIETGGNERGKFTLSVPQNLSALQLLQWETGIHALAERLGGCRLLQISTRGTRDGIEFTVRETPCVSPASDPIPSTSRSSSIASNVSTRQTESPGSKSNTSLGIPEAPANLIDMGAIDKEFILAAISPSDPPYKNTLRNLFGSGDSFEQYNQTGIYSLKELVIAGLKRKGIYNRIRIRCHLEPQFN
notes: Chandipura virus phosphoprotein P, full length (pET20b-P); pET20b usually adds a C-terminal His tag (surmise); also called 6×His-P; pET20b-P; source: bacterially expressed, purified (Ni-NTA agarose); not shown: His6, N-terminal, kept
binds: all assays above

From publication PMC3317646, “Interaction of Chandipura Virus N and P Proteins: Identification of Two Mutually Exclusive Domains of N Involved in Interaction with P” (PLoS ONE, 2012)
